No end group written: not given here.
Molecular target: T1, HFGAN72 receptor (human, UniProt O43613 1-425)
T1 sequence (looked up): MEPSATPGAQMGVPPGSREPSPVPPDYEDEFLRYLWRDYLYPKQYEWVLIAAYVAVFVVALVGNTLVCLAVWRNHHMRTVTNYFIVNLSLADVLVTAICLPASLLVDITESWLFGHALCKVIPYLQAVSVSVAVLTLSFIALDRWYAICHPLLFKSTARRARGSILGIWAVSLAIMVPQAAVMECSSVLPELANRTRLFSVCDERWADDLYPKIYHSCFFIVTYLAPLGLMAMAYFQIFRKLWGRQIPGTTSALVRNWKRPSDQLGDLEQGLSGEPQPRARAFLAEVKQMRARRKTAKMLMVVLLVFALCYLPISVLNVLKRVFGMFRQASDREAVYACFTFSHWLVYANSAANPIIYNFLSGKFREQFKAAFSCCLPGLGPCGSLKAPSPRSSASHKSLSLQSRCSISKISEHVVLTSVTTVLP
Assay: cell-based or functional assay

- Intracellular calcium levels in Fura-loaded 293 cells transfected with the receptor; EC50: ~0.05 µg/mL
B1: Lig 72A (HFGAN72 receptor ligand) (peptide)
peptide: QPLPDCCRQKTCSCRLYELLHGAGNHAAGILTL
modifications: cysteine pairing not given here; also: N-terminus blocked

Reference: patent US20020082202A1 (GlaxoSmithKline, published 2002)
